Results published in the supplement of paper PMC5998384.

Key:
HeLa Kyoto [1] = test: solubility change mitosis vs G1/S (difference of NP-40 vs SDS log2 ratios) (log2 ratio difference); higher = more soluble in mitosis
HeLa Kyoto [2] = test: solubility in G1/S (NP-40 vs SDS abundance) (log2 ratio); higher = more soluble; conditions: cell cycle stage: G1/S
HeLa Kyoto [3] = test: melting temperature (median over replicates), in situ; higher = more thermally stable
HeLa Kyoto [4] = test: thermal stability score vs G1/S (z-score of summed log2 fold changes over temperatures); higher = more thermally stable than in G1/S
[5] = cell cycle stage: early G1 (4.5 h after nocodazole release)
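For melting temperature (median over replicates), in situ in this document: HeLa Kyoto cells synchronized by double thymidine or nocodazole block, proteins quantified by TMT10plex mass spectrometry, three independent biological replicates.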
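For solubility change mitosis vs G1/S (difference of NP-40 vs SDS log2 ratios) in this document: synchronized HeLa Kyoto cells (double thymidine block for G1/S, nocodazole release for mitosis), protein amounts in NP-40 versus SDS lysates quantified by mass spectrometry, three biological replicates.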
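For solubility in G1/S (NP-40 vs SDS abundance) in this document: HeLa Kyoto cells arrested at G1/S by double thymidine block, proteins quantified by TMT10plex mass spectrometry in mild NP-40 versus SDS extracts, three biological replicates.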
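For thermal stability score vs G1/S (z-score of summed log2 fold changes over temperatures) in this document: synchronized HeLa Kyoto cells, proteins quantified by TMT10plex mass spectrometry, three biological replicates, mitosis taken 0.5 h after nocodazole release, G1/S directly after double thymidine block.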

Sequence	solubility change mitosis (log2) (HeLa Kyoto [1])	solubility in G1/S (log2) (HeLa Kyoto [2])	melting temperature (HeLa Kyoto [3]; cell cycle stage: G1/S) [°C]	melting temperature (HeLa Kyoto [3]; cell cycle stage: mitosis) [°C]	thermal stability score (HeLa Kyoto [4]; [5])	thermal stability score (HeLa Kyoto [4]; cell cycle stage: mitosis)
MGRAGAAAVIPGLALLWAVGLGSAAPSPPRLRLSFQELQAWHGLQTFSLERTCCYQALLVDEERGRLFVGAENHVASLNLDNISKRAKKLAWPAPVEWREECNWAGKDIGTECMNFVKLLHAYNRTHLLACGTGAFHPTCAFVEVGHRAEEPVLRLDPGRIEDGKGKSPYDPRHRAASVLVGEELYSGVAADLMGRDFTIFRSLGQRPSLRTEPHDSRWLNEPKFVKVFWIPESENPDDDKIYFFFRETAVEAAPALGRLSVSRVGQICRNDVGGQRSLVNKWTTFLKARLVCSVPGVEGDTHFDQLQDVFLLSSRDHRTPLLYAVFSTSSSIFQGSAVCVYSMNDVRRAFLGPFAHKEGPMHQWVSYQGRVPYPRPGMCPSKTFGTFSSTKDFPDDVIQFARNHPLMYNSVLPTGGRPLFLQVGANYTFTQIAADRVAAADGHYDVLFIGTDVGTVLKVISVPKGSRPSAEGLLLEELHVFEDSAAVTSMQISSKRHQLYVASRSAVAQIALHRCAAHGRVCTECCLARDPYCAWDGVACTRFQPSAKRRFRRQDVRNGDPSTLCSGDSSRPALLEHKVFGVEGSSAFLECEPRSLQARVEWTFQRAGVTAHTQVLAEERTERTARGLLLRRLRRRDSGVYLCAAVEQGFTQPLRRLSLHVLSATQAERLARAEEAAPAAPPGPKLWYRDFLQLVEPGGGGSANSLRMCRPQPALQSLPLESRRKGRNRRTHAPEPRAERGPRSATHW [SEMA3B]	-0.384	-0.625	55.1	57.9	4.5	7.7
MGRLVAVGLLGIALALLGERLLALRNRLKASREVESVDLPHCHLIKGIEAGSEDIDILPNGLAFFSVGLKFPGLHSFAPDKPGGILMMDLKEEKPRARELRISRGFDLASFNPHGISTFIDNDDTVYLFVVNHPEFKNTVEIFKFEEAENSLLHLKTVKHELLPSVNDITAVGPAHFYATNDHYFSDPFLKYLETYLNLHWANVVYYSPNEVKVVAEGFDSANGINISPDDKYIYVADILAHEIHVLEKHTNMNLTQLKVLELDTLVDNLSIDPSSGDIWVGCHPNGQKLFVYDPNNPPSSEVLRIQNILSEKPTVTTVYANNGSVLQGSSVASVYDGKLLIGTLYHRALYCEL [PON2]	-0.101	0.315	53.6	53.6	4.83	4.5
MGRRRAPELYRAPFPLYALQVDPSTGLLIAAGGGGAAKTGIKNGVHFLQLELINGRLSASLLHSHDTETRATMNLALAGDILAAGQDAHCQLLRFQAHQQQGNKAEKAGSKEQGPRQRKGAAPAEKKCGAETQHEGLELRVENLQAVQTDFSSDPLQKVVCFNHDNTLLATGGTDGYVRVWKVPSLEKVLEFKAHEGEIEDLALGPDGKLVTVGRDLKASVWQKDQLVTQLHWQENGPTFSSTPYRYQACRFGQVPDQPAGLRLFTVQIPHKRLRQPPPCYLTAWDGSNFLPLRTKSCGHEVVSCLDVSESGTFLGLGTVTGSVAIYIAFSLQCLYYVREAHGIVVTDVAFLPEKGRGPELLGSHETALFSVAVDSRCQLHLLPSRRSVPVWLLLLLCVGLIIVTILLLQSAFPGFL [PREB]	-0.103	-0.0601	53.8	54.1	-0.808	-1.93
MGRRSRGRRLQQQQRPEDAEDGAEGGGKRGEAGWEGGYPEIVKENKLFEHYYQELKIVPEGEWGQFMDALREPLPATLRITGYKSHAKEILHCLKNKYFKELEDLEVDGQKVEVPQPLSWYPEELAWHTNLSRKILRKSPHLEKFHQFLVSETESGNISRQEAVSMIPPLLLNVRPHHKILDMCAAPGSKTTQLIEMLHADMNVPFPEGFVIANDVDNKRCYLLVHQAKRLSSPCIMVVNHDASSIPRLQIDVDGRKEILFYDRILCDVPCSGDGTMRKNIDVWKKWTTLNSLQLHGLQLRIATRGAEQLAEGGRMVYSTCSLNPIEDEAVIASLLEKSEGALELADVSNELPGLKWMPGITQWKVMTKDGQWFTDWDAVPHSRHTQIRPTMFPPKDPEKLQAMHLERCLRILPHHQNTGGFFVAVLVKKSSMPWNKRQPKLQGKSAETRESTQLSPADLTEGKPTDPSKLESPSFTGTGDTEIAHATEDLENNGSKKDGVCGPPPSKKMKLFGFKEDPFVFIPEDDPLFPPIEKFYALDPSFPRMNLLTRTTEGKKRQLYMVSKELRNVLLNNSEKMKVINTGIKVWCRNNSGEEFDCAFRLAQEGIYTLYPFINSRIITVSMEDVKILLTQENPFFRKLSSETYSQAKDLAKGSIVLKYEPDSANPDALQCPIVLCGWRGKASIRTFVPKNERLHYLRMMGLEVLGEKKKEGVILTNESAASTGQPDNDVTEGQRAGEPNSPDAEEANSPDVTAGCDPAGVHPPR [NSUN2]	-0.00496	0.0447	46.6	49.2	5.62	11.8
MGRSRSRSSSRSKHTKSSKHNKKRSRSRSRSRDKERVRKRSKSRESKRNRRRESRSRSRSTNTAVSRRERDRERASSPPDRIDIFGRTVSKRSSLDEKQKREEEEKKAEFERQRKIRQQEIEEKLIEEETARRVEELVAKRVEEELEKRKDEIEREVLRRVEEAKRIMEKQLLEELERQRQAELAAQKAREEEERAKREELERILEENNRKIAEAQAKLAEEQLRIVEEQRKIHEERMKLEQERQRQQKEEQKIILGKGKSRPKLSFSLKTQD [ARGLU1]	0.866	-1.03	51	50.4	-5.79	-4.86
MGRVVAELVSSLLGLWLLLCSCGCPEGAELRAPPDKIAIIGAGIGGTSAAYYLRQKFGKDVKIDLFEREEVGGRLATMMVQGQEYEAGGSVIHPLNLHMKRFVKDLGLSAVQASGGLLGIYNGETLVFEESNWFIINVIKLVWRYGFQSLRMHMWVEDVLDKFMRIYRYQSHDYAFSSVEKLLHALGGDDFLGMLNRTLLETLQKAGFSEKFLNEMIAPVMRVNYGQSTDINAFVGAVSLSCSDSGLWAVEGGNKLVCSGLLQASKSNLISGSVMYIEEKTKTKYTGNPTKMYEVVYQIGTETRSDFYDIVLVATPLNRKMSNITFLNFDPPIEEFHQYYQHIVTTLVKGELNTSIFSSRPIDKFGLNTVLTTDNSDLFINSIGIVPSVREKEDPEPSTDGTYVWKIFSQETLTKAQILKLFLSYDYAVKKPWLAYPHYKPPEKCPSIILHDRLYYLNGIECAASAMEMSAIAAHNAALLAYHRWNGHTDMIDQDGLYEKLKTEL [PCYOX1]	-0.225	0.102	56.6	57.1	1.46	0.959
MGSGARFPSGTLRVRWLLLLGLVGPVLGAARPGFQQTSHLSSYEIITPWRLTRERREAPRPYSKQVSYVIQAEGKEHIIHLERNKDLLPEDFVVYTYNKEGTLITDHPNIQNHCHYRGYVEGVHNSSIALSDCFGLRGLLHLENASYGIEPLQNSSHFEHIIYRMDDVYKEPLKCGVSNKDIEKETAKDEEEEPPSMTQLLRRRRAVLPQTRYVELFIVVDKERYDMMGRNQTAVREEMILLANYLDSMYIMLNIRIVLVGLEIWTNGNLINIVGGAGDVLGNFVQWREKFLITRRRHDSAQLVLKKGFGGTAGMAFVGTVCSRSHAGGINVFGQITVETFASIVAHELGHNLGMNHDDGRDCSCGAKSCIMNSGASGSRNFSSCSAEDFEKLTLNKGGNCLLNIPKPDEAYSAPSCGNKLVDAGEECDCGTPKECELDPCCEGSTCKLKSFAECAYGDCCKDCRFLPGGTLCRGKTSECDVPEYCNGSSQFCQPDVFIQNGYPCQNNKAYCYNGMCQYYDAQCQVIFGSKAKAAPKDCFIEVNSKGDRFGNCGFSGNEYKKCATGNALCGKLQCENVQEIPVFGIVPAIIQTPSRGTKCWGVDFQLGSDVPDPGMVNEGTKCGAGKICRNFQCVDASVLNYDCDVQKKCHGHGVCNSNKNCHCENGWAPPNCETKGYGGSVDSGPTYNEMNTALRDGLLVFFFLIVPLIVCAIFIFIKRDQLWRSYFRKKRSQTYESDGKNQANPSRQPGSVPRHVSPVTPPREVPIYANRFAVPTYAAKQPQQFPSRPPPPQPKVSSQGNLIPARPAPAPPLYSSLT [ADAM9]	-0.00657	-0.486	57.3	56.8	-2.54	-2.91
MGSRVSREDFEWVYTDQPHADRRREILAKYPEIKSLMKPDPNLIWIIIMMVLTQLGAFYIVKDLDWKWVIFGAYAFGSCINHSMTLAIHEIAHNAAFGNCKAMWNRWFGMFANLPIGIPYSISFKRYHMDHHRYLGADGVDVDIPTDFEGWFFCTAFRKFIWVILQPLFYAFRPLFINPKPITYLEVINTVAQVTFDILIYYFLGIKSLVYMLAASLLGLGLHPISGHFIAEHYMFLKGHETYSYYGPLNLLTFNVGYHNEHHDFPNIPGKSLPLVRKIAAEYYDNLPHYNSWIKVLYDFVMDDTISPYSRMKRHQKGEMVLE [DEGS1]	-0.264	-0.186	55	55.2	-0.898	-1.88
